# Laboratory results reported in the supplement of paper PMC12855868.
# B1: library; numbered along this chain (parent)
# chain: MAAAGGARLLRAASAVLGGPAGRWLHHAGSRAGSSGLLRNRGPGGSAEASRSLSVSARARSSSEDKITVHFINRDGETLTTKGKVGDSLLDVVVENNLDIDGFGACEGTLACSTCHLIFEDHIYEKLDAITDEENDMLDLAYGLTDRSRLGCQICLTKSMDNMTVRVPETVADARQSIDVGKTS
# Variants of: B1
# Experiment: scaled log2 fold change in cell abundance, elesclomol vs control (0 = silent mean, 1 = nonsense mean) (scaled log2 ratio); higher = higher viability under elesclomol (loss of FDX1 cuproptosis function)
# Conditions: glucose 10 mM
# [1] = with ABC1 FDX1 KO, elesclomol 5 nM, 14 days
# [2] = with HEK293T FDX1 KO, elesclomol 40 nM, 11 days
# 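Note: variant abundance is its share of total variant reads in each endpoint sample, from next-generation sequencing of the integrated ORF PCR-amplified out of genomic DNA.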
Variant,scaled log2 fold change [1],scaled log2 fold change [2]
R147Y,0.159,0.243
R147C,-0.148,0.356
D139T,-0.31,-0.694
G33C,-0.0719,0.194
K182A,0.0976,-0.691
A4N,0.0756,-0.335
S46Q,0.68,0.186
V55M,0.374,0.955
M163F,0.518,-0.42
M163D,1.16,0.514
V165A,-0.0573,-0.318
L79D,0.287,-0.0667
S14P,0.707,–
L37W,0.235,-0.0987
S159K,0.382,-0.162
D75L,0.0705,-0.00446
D75K,-0.678,–
P20Q,-0.5,1.13
D132H,0.104,-1.46
V94N,-0.345,-1.27
S177T,-0.0709,-0.492
A141P,0.46,-0.803
N40L,-0.507,0.239
L17T,0.262,-0.223

Variant,scaled log2 fold change [1],scaled log2 fold change [2]
V167G,0.269,0.997
V167R,0.264,-0.286
V167W,0.155,-0.0986
V167D,0.489,0.995
H122I,0.215,1.13
R74Y,-0.0737,0.186
R74A,-0.255,-0.8
D179G,0.226,0.304
G44A,0.246,2.06
S35D,0.267,1.13
S54A,0.19,-0.116
S54V,-0.108,-1.29
W24I,-0.0623,–
A47M,0.779,0.799
N135T,-0.162,-0.382
N135Y,0.0894,0.75
N135L,0.151,0.661
D173P,0.0487,0.601
A111P,1.2,1.01
A174N,-0.0564,–
L117R,1.14,0.855
L117G,0.483,0.224
D121N,-0.0427,–
D121Q,0.169,0.0204

Variant,scaled log2 fold change [1],scaled log2 fold change [2]
I154F,0.839,0.781
I154M,0.363,0.583
R51P,0.212,–
S30G,-0.403,0.208
S184R,0.0521,-0.427
G104I,0.933,1.53
G104L,1.03,0.779
R31G,0.358,-0.248
D65Q,0.0546,0.293
E64I,0.394,0.168
E64Y,0.374,-0.0105
A172I,0.216,1.09
C115V,1.07,1.37
C115E,1.27,0.99
M137E,-0.366,0.879
F103V,0.282,-0.441
F103L,0.27,0.542
G6R,0.173,0.123
G6I,0.0452,-0.31
E134L,1.1,1.21
T81S,-0.82,1.14
T81E,0.273,0.0361
L144H,-0.0895,-0.335
D136I,0.422,-0.019

Variant,scaled log2 fold change [1],scaled log2 fold change [2]
N97H,-0.355,-0.619
G108K,0.467,0.101
D87I,-0.274,-0.421
D87Y,-0.31,-0.0378
A28Q,0.264,0.224
S50Y,-0.231,0.499
S50C,0.19,0.37
T157C,0.0208,0.206
I178M,-0.147,0.0752
I178T,0.00283,-0.626
D99M,-0.0783,0.944
E107Q,-0.324,-0.527
V16S,0.228,-0.117
G83A,0.184,-0.672
A105Q,-0.126,0.295
A105I,-0.149,-0.181
R60V,0.116,–
A32V,-0.114,–
G102N,-0.336,0.807
G102S,0.293,0.861
I100Y,0.0992,-0.139
A15L,-0.153,-0.301
I72A,0.0764,-0.682
I72L,-0.315,-0.275

Variant,scaled log2 fold change [1],scaled log2 fold change [2]
A12V,0.373,–
A12G,0.259,-0.297
Y124E,0.16,0.747
L140N,0.179,–
L140D,-0.319,-0.308
L150C,-0.0973,0.196
L150D,1.09,0.982
T131D,0.127,-0.23
L110F,0.167,0.528
K66E,-0.297,-0.118
K66D,-0.097,–
S113C,-0.028,0.699
H116V,0.0823,-0.296
K126W,0.411,0.186
S148H,0.322,-0.35
S148N,0.122,0.397
D146V,-0.227,-0.76
D146S,-0.00471,0.0302
E48Q,0.747,0.877
A49K,0.256,-0.293
A49R,0.181,–
S34G,0.285,-0.277
D161G,-0.198,–
T145V,0.027,-0.443
